According to patent US20260265379A1 (IMCHECK THERAPEUTICS, published 2026):

Columns and labels:
[1] = molecular target: T1, BTN3A1 at the surface of HEK-BTN3A1 cells (human, UniProt O00481 30-513); test: flow cytometry, HEK-BTN3A1 cells
T1 construct: HEK 293T BTN2A/BTN3A KO cells transduced with a BTN3A1 expressing vector

[2] = molecular target: T2, PD-1 at the surface of Jurkat-PD-1 cells (human, UniProt Q15116 25-288); test: cell-based or functional assay
[3] = molecular target: T2, PD-1 at the surface of Jurkat-PD-1 cells; test: flow cytometry, Jurkat-PD-1 cells
recombinant human PD-1 = molecular target: T3, recombinant human PD-1 (human, UniProt Q15116 25-167, limits assumed); test: SPR
T3 construct: Soluble antigen in SPR; also called rhPD-1
T3 sequence (Q15116 25-167 limits assumed): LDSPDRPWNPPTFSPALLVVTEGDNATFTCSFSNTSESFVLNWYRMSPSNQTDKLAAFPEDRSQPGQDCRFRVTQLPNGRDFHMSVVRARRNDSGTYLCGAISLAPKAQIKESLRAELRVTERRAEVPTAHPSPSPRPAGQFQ

recombinant human BTN3A1 = molecular target: T4, recombinant human BTN3A1 (human, UniProt O00481 30-254); test: SPR
T4 construct: Soluble form of the antigen used in SPR; also called rhBTN3A1; recombinant BTN3A1 protein
T4 sequence (O00481 30-254 limits assumed): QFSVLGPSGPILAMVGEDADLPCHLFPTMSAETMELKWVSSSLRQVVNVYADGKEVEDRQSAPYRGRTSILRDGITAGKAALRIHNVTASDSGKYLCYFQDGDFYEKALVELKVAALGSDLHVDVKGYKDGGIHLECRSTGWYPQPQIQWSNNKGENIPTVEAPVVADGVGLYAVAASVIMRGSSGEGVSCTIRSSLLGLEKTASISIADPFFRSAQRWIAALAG

recombinant human PD-L1 = molecular target: T5, recombinant human PD-L1 (human, UniProt Q9NZQ7 19-239, limits assumed); test: SPR
T5 construct: Soluble antigen in SPR; also called rhPD-L1
T5 sequence (Q9NZQ7 19-239 limits assumed): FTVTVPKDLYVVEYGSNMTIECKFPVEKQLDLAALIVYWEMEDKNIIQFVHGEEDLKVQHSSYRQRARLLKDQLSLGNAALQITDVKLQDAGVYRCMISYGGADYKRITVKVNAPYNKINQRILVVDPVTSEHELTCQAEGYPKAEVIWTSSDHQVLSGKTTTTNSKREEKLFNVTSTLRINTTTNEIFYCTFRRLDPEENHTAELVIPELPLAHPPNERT

[4] = molecular target: T6, PD-L1 at the surface of transduced cells (UniProt Q9NZQ7 19-290, limits assumed); test: flow cytometry, CHO-PD-L1 cells
T6 construct: whole, on cells; CHO-PD-L1 cells in flow cytometry, Raji-PD-L1 cells in the reporter assay; also called CHO-PD-L1; Raji-PD-L1
T6 sequence (Q9NZQ7 19-290 limits assumed): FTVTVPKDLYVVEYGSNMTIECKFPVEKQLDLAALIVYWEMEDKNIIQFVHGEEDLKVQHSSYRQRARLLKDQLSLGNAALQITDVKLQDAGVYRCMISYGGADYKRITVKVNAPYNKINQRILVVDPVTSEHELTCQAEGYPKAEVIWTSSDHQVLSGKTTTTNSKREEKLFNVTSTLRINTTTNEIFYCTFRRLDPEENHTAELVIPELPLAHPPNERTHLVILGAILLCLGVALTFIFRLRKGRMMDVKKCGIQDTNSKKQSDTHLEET

T1 sequence (O00481 30-513 limits assumed): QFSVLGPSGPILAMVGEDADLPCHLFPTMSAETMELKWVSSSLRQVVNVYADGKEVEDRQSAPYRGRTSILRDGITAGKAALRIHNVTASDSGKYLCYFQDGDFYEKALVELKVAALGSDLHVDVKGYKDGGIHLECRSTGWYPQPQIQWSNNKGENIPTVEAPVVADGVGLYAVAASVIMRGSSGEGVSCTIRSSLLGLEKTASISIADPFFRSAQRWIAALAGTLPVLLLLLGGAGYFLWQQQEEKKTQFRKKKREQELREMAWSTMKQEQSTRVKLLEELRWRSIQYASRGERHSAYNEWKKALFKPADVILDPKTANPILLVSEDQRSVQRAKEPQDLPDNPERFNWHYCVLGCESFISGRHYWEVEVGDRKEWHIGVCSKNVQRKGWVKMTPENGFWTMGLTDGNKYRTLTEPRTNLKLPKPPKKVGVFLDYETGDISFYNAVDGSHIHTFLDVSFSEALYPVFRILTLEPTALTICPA
T2 sequence (Q15116 25-288): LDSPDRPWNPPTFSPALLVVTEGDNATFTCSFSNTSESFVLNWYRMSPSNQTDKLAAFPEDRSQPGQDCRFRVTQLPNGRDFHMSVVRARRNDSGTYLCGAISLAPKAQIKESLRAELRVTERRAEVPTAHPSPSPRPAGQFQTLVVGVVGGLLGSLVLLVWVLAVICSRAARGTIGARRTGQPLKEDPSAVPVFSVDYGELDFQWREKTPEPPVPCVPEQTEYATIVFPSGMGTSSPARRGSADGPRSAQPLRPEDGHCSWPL

| Binder | MFI at 10 nM [1] [MFI] | MFI at 100 nM [1] [MFI] | Jurkat-PD-1 activation at 10 nM [2] | Jurkat-PD-1 activation at 100 nM [2] | MFI at 10 nM [3] [MFI] | MFI at 100 nM [3] [MFI] | Kd (recombinant human PD-1) [nM] | Kd (recombinant human BTN3A1) [nM] | Kd (recombinant human PD-L1) [nM] | MFI at 10 nM [4] [MFI] | MFI at 100 nM [4] [MFI] |
| --- | --- | --- | --- | --- | --- | --- | --- | --- | --- | --- | --- |
| bsAb020 (bispecific antibody, IgG anti-PD-L1, scFv anti-BTN3A) heavy: DIQMTQSPSSLSASVGDRVTITCHASQNINVWLSWYQQKPGKAPKLLIYKASNLHTGVPSRFTGSGSGTDFTFTISSLQPEDIATYYCQQGQTYPYTFGQGTKLEIKGGGGSGGGGSGGGGSGGGGSQVQLVQSGAEVKKPGASVKLSCKASGYIFTRYYMYWVKQRPGQGLEWIGEINPNNGGTKFNEKFKNRATLTVDKSISTAYMELSRLRSDDTAVYYCSREDDYDGTPFAMDYWGQGTLVTVSSGGGGSGGGGSGGGGSGGGGSEVQLVESGGGLVQPGGSLRLSCAASGFTFSRYWMSWVRQAPGKGLEWVANIKQDGSEKYYVDSVKGRFTISRDNAKNSLYLQMNSLRAEDTAVYYCAREGGWFGELAFDYWGQGTLVTVSSASTKGPSVFPLAPSSKSTSGGTAALGCLVKDYFPEPVTVSWNSGALTSGVHTFPAVLQSSGLYSLSSVVTVPSSSLGTQTYICNVNHKPSNTKVDKRVEPKSCDKTHTCPPCPAPEFEGGPSVFLFPPKPKDTLMISRTPEVTCVVVDVSHEDPEVKFNWYVDGVEVHNAKTKPREEQYNSTYRVVSVLTVLHQDWLNGKEYKCKVSNKALPASIEKTISKAKGQPREPQVYTLPPSREEMTKNQVSLTCLVKGFYPSDIAVEWESNGQPENNYKTTPPVLDSDGSFFLYSKLTVDKSRWQQGNVFSCSVMHEALHNHYTQKSLSLSPG light: EIVLTQSPGTLSLSPGERATLSCRASQRVSSSYLAWYQQKPGQAPRLLIYDASSRATGIPDRFSGSGSGTDFTLTISRLEPEDFAVYYCQQYGSLPWTFGQGTKVEIKRTVAAPSVFIFPPSDEQLKSGTASVVCLLNNFYPREAKVQWKVDNALQSGNSQESVTEQDSKDSTYSLSSTLTLSKADYEKHKVYACEVTHQGLSSPVTKSFNRGEC | 997000 | 1.5e+06 |  |  |  |  |  | 0.114 | 0.073 | 746000 | 784000 |
| bsAb024 (bispecific antibody, IgG anti-PD-L1, scFv anti-BTN3A) heavy: QVQLVQSGAEVKKPGASVKLSCKASGYIFTRYYMYWVKQRPGQGLEWIGEINPNNGGTKFNEKFKNRATLTVDKSISTAYMELSRLRSDDTAVYYCSREDDYDGTPFAMDYWGQGTLVTVSSGGGGSGGGGSGGGGSGGGGSDIQMTQSPSSLSASVGDRVTITCHASQNINVWLSWYQQKPGKAPKLLIYKASNLHTGVPSRFTGSGSGTDFTFTISSLQPEDIATYYCQQGQTYPYTFGQGTKLEIKGGGGSGGGGSGGGGSGGGGSEVQLVESGGGLVQPGGSLRLSCAASGFTFSRYWMSWVRQAPGKGLEWVANIKQDGSEKYYVDSVKGRFTISRDNAKNSLYLQMNSLRAEDTAVYYCAREGGWFGELAFDYWGQGTLVTVSSASTKGPSVFPLAPSSKSTSGGTAALGCLVKDYFPEPVTVSWNSGALTSGVHTFPAVLQSSGLYSLSSVVTVPSSSLGTQTYICNVNHKPSNTKVDKRVEPKSCDKTHTCPPCPAPEFEGGPSVFLFPPKPKDTLMISRTPEVTCVVVDVSHEDPEVKFNWYVDGVEVHNAKTKPREEQYNSTYRVVSVLTVLHQDWLNGKEYKCKVSNKALPASIEKTISKAKGQPREPQVYTLPPSREEMTKNQVSLTCLVKGFYPSDIAVEWESNGQPENNYKTTPPVLDSDGSFFLYSKLTVDKSRWQQGNVFSCSVMHEALHNHYTQKSLSLSPG light: EIVLTQSPGTLSLSPGERATLSCRASQRVSSSYLAWYQQKPGQAPRLLIYDASSRATGIPDRFSGSGSGTDFTLTISRLEPEDFAVYYCQQYGSLPWTFGQGTKVEIKRTVAAPSVFIFPPSDEQLKSGTASVVCLLNNFYPREAKVQWKVDNALQSGNSQESVTEQDSKDSTYSLSSTLTLSKADYEKHKVYACEVTHQGLSSPVTKSFNRGEC |  | 1.66e+06 |  |  |  |  |  | 0.073 | 0.065 | 762000 | 794000 |
| bsAb036 (bispecific antibody, one Fab arm anti-PD-L1, two scFv anti-BTN3A; not shown: IgG1 CH1-hinge-CH2-CH3; CH2-CH3 (Fc)) heavy (part 1 of 2): EVQLVESGGGLVQPGGSLRLSCAASGFTFSRYWMSWVRQAPGKGLEWVANIKQDGSEKYYVDSVKGRFTISRDNAKNSLYLQMNSLRAEDTAVYYCAREGGWFGELAFDYWGQGTLVTVSS heavy (part 2 of 2): GGGGSGGGGSGGGGSGGGGSQVQLVQSGAEVKKPGASVKLSCKASGYIFTRYYMYWVKQRPGQGLEWIGEINPNNGGTKFNEKFKNRATLTVDKSISTAYMELSRLRSDDTAVYYCSREDDYDGTPFAMDYWGQGTLVTVSSGGGGSGGGGSGGGGSGGGGSDIQMTQSPSSLSASVGDRVTITCHASQNINVWLSWYQQKPGKAPKLLIYKASNLHTGVPSRFTGSGSGTDFTFTISSLQPEDIATYYCQQGQTYPYTFGQGTKLEIK heavy: GGGGSGGGGSGGGGSGGGGSQVQLVQSGAEVKKPGASVKLSCKASGYIFTRYYMYWVKQRPGQGLEWIGEINPNNGGTKFNEKFKNRATLTVDKSISTAYMELSRLRSDDTAVYYCSREDDYDGTPFAMDYWGQGTLVTVSSGGGGSGGGGSGGGGSGGGGSDIQMTQSPSSLSASVGDRVTITCHASQNINVWLSWYQQKPGKAPKLLIYKASNLHTGVPSRFTGSGSGTDFTFTISSLQPEDIATYYCQQGQTYPYTFGQGTKLEIK light: EIVLTQSPGTLSLSPGERATLSCRASQRVSSSYLAWYQQKPGQAPRLLIYDASSRATGIPDRFSGSGSGTDFTLTISRLEPEDFAVYYCQQYGSLPWTFGQGTKVEIKRTVAAPSVFIFPPSDEQLKSGTASVVCLLNNFYPREAKVQWKVDNALQSGNSQESVTEQDSKDSTYSLSSTLTLSKADYEKHKVYACEVTHQGLSSPVTKSFNRGEC | 682000 | 1.22e+06 |  |  |  |  |  | 0.457 | 0.055 | 1.03e+06 | 1.24e+06 |

The next lines start with the values.

| MFI at 10 nM [1] [MFI] | MFI at 100 nM [1] [MFI] | Jurkat-PD-1 activation at 10 nM [2] | Jurkat-PD-1 activation at 100 nM [2] | MFI at 10 nM [3] [MFI] | MFI at 100 nM [3] [MFI] | Kd (recombinant human PD-1) [nM] | Kd (recombinant human BTN3A1) [nM] | Kd (recombinant human PD-L1) [nM] | MFI at 10 nM [4] [MFI] | MFI at 100 nM [4] [MFI] | Binder |
| --- | --- | --- | --- | --- | --- | --- | --- | --- | --- | --- | --- |
| 321000 | 785000 | 5.3 fold-change to medium | 7.6 fold-change to medium | 185000 | 366000 | 1.8 | 0.069 |  |  |  | bsAb052 (bispecific antibody, one Fab arm anti-BTN3A, two scFv anti-PD-1; not shown: IgG1 CH1-hinge-CH2-CH3; CH2-CH3 (Fc)) heavy (part 1 of 2): QVQLVQSGAEVKKPGASVKLSCKASGYIFTRYYMYWVKQRPGQGLEWIGEINPNNGGTKFNEKFKNRATLTVDKSISTAYMELSRLRSDDTAVYYCSREDDYDGTPFAMDYWGQGTLVTVSS heavy (part 2 of 2): GGGGSGGGGSGGGGSGGGGSQVQLVQSGVEVKKPGASVKVSCKASGYTFTNYYMYWVRQAPGQGLEWMGGINPSNGGTNFNEKFKNRVTLTTDSSTTTAYMELKSLQFDDTAVYYCARRDYRFDMGFDYWGQGTTVTVSSGGGGSGGGGSGGGGSGGGGSEIVLTQSPATLSLSPGERATLSCRASKGVSTSGYSYLHWYQQKPGQAPRLLIYLASYLESGVPARFSGSGSGTDFTLTISSLEPEDFAVYYCQHSRDLPLTFGGGTKVEIK heavy: GGGGSGGGGSGGGGSGGGGSQVQLVQSGVEVKKPGASVKVSCKASGYTFTNYYMYWVRQAPGQGLEWMGGINPSNGGTNFNEKFKNRVTLTTDSSTTTAYMELKSLQFDDTAVYYCARRDYRFDMGFDYWGQGTTVTVSSGGGGSGGGGSGGGGSGGGGSEIVLTQSPATLSLSPGERATLSCRASKGVSTSGYSYLHWYQQKPGQAPRLLIYLASYLESGVPARFSGSGSGTDFTLTISSLEPEDFAVYYCQHSRDLPLTFGGGTKVEIK light: not shown |
| 340000 | 792000 |  |  |  |  |  | 0.095 | 0.033 | 578000 | 597000 | bsAb051 (bispecific antibody, one Fab arm anti-BTN3A, two scFv anti-PD-L1; not shown: IgG1 CH1-hinge-CH2-CH3; CH2-CH3 (Fc)) heavy (part 1 of 2): QVQLVQSGAEVKKPGASVKLSCKASGYIFTRYYMYWVKQRPGQGLEWIGEINPNNGGTKFNEKFKNRATLTVDKSISTAYMELSRLRSDDTAVYYCSREDDYDGTPFAMDYWGQGTLVTVSS heavy (part 2 of 2): GGGGSGGGGSGGGGSGGGGSEVQLVESGGGLVQPGGSLRLSCAASGFTFSRYWMSWVRQAPGKGLEWVANIKQDGSEKYYVDSVKGRFTISRDNAKNSLYLQMNSLRAEDTAVYYCAREGGWFGELAFDYWGQGTLVTVSSGGGGSGGGGSGGGGSGGGGSEIVLTQSPGTLSLSPGERATLSCRASQRVSSSYLAWYQQKPGQAPRLLIYDASSRATGIPDRFSGSGSGTDFTLTISRLEPEDFAVYYCQQYGSLPWTFGQGTKVEIK heavy: GGGGSGGGGSGGGGSGGGGSEVQLVESGGGLVQPGGSLRLSCAASGFTFSRYWMSWVRQAPGKGLEWVANIKQDGSEKYYVDSVKGRFTISRDNAKNSLYLQMNSLRAEDTAVYYCAREGGWFGELAFDYWGQGTLVTVSSGGGGSGGGGSGGGGSGGGGSEIVLTQSPGTLSLSPGERATLSCRASQRVSSSYLAWYQQKPGQAPRLLIYDASSRATGIPDRFSGSGSGTDFTLTISRLEPEDFAVYYCQQYGSLPWTFGQGTKVEIK light: not shown |
| 519000 | 1e+06 | 1.5 fold-change to medium | 3.4 fold-change to medium |  | 334000 | 2 | 0.065 |  |  |  | bsAb056 (bispecific antibody, one Fab arm anti-BTN3A, one scFv anti-PD-1; not shown: CH2-CH3 (Fc); IgG1 CH1-hinge-CH2-CH3) heavy 1: GGGGSGGGGSGGGGSGGGGSQVQLVQSGVEVKKPGASVKVSCKASGYTFTNYYMYWVRQAPGQGLEWMGGINPSNGGTNFNEKFKNRVTLTTDSSTTTAYMELKSLQFDDTAVYYCARRDYRFDMGFDYWGQGTTVTVSSGGGGSGGGGSGGGGSGGGGSEIVLTQSPATLSLSPGERATLSCRASKGVSTSGYSYLHWYQQKPGQAPRLLIYLASYLESGVPARFSGSGSGTDFTLTISSLEPEDFAVYYCQHSRDLPLTFGGGTKVEIK heavy 2: QVQLVQSGAEVKKPGASVKLSCKASGYIFTRYYMYWVKQRPGQGLEWIGEINPNNGGTKFNEKFKNRATLTVDKSISTAYMELSRLRSDDTAVYYCSREDDYDGTPFAMDYWGQGTLVTVSS light: not shown |
